We go through eight substances from publication PMC11958657.

The target in assay [1] is L4-MHC (SIYLYYGL peptide presented by H-2K^b) (mouse | human). Nature of the assay: ultra-stable biomembrane force probe (U-BFP), force-clamp bond lifetimes; biotinylated pMHC on a streptavidin bead on a red blood cell probe against a TCR-expressing T cell without CD8; adhesion frequency below 20%; DMEM with 0.5% BSA.
Assay [2] concerns the target R4-MHC (SIYRYYGL peptide presented by H-2K^b) (mouse | human). The assay is described as above.
The target in assay [3] is L4-MHC (SIYLYYGL peptide presented by H-2K^b) (mouse | human). Nature of the assay: micropipette single-cell adhesion frequency assay; biotinylated pMHC on streptavidin-coated red blood cells against a TCR-expressing T cell; 2D effective binding affinity AcKa; whether CD8 was on the T cells is not stated.
The target of assay [4] is R4-MHC (SIYRYYGL peptide presented by H-2K^b) (mouse | human). The description is as above.
Assay [5] addresses L4-MHC (SIYLYYGL peptide presented by H-2K^b) (mouse | human). Kind of assay: micropipette single-cell adhesion frequency assay; TCR on a hybridoma T cell held by a micropipette, brought into contact with a streptavidin-coated biotinylated human RBC carrying biotinylated pMHC; bi-molecular TCR-pMHC (CD8-); zero force; 2D effective constants from the fit of adhesion frequency against contact time.

Assay [6] has the same target. Nature of the assay: ultra-stable biomembrane force probe (U-BFP), force-clamp bond lifetimes; as a3, but the T cell expresses wild-type CD8αβ beside the TCR (TCR–pMHC–CD8 tri-molecular interaction).
For assay [7], the target named is R4-MHC (SIYRYYGL peptide presented by H-2K^b) (mouse | human). Described as above.
The target in assay [8] is L4-MHC (SIYLYYGL peptide presented by H-2K^b) (mouse | human).
In assay [9] the target is R4-MHC (SIYRYYGL peptide presented by H-2K^b) (mouse | human).
Assay [10] shares this target. This is another data set of the same source.
Assay [11] has as its target R4-MHC ( peptide presented by H-2K^b) (mouse | human). Nature of the assay: SPR. A general note: SPR reads the build-up and loss of mass on a sensor chip optically.
Assay [12] addresses L4-MHC ( peptide presented by H-2K^b) (mouse | human). Nature of the assay: SPR.
For assay [13], the target named is R4-MHC (SIYRYYGL peptide presented by H-2K^b) (mouse | human). Kind of assay: ultra-stable biomembrane force probe (U-BFP), force-clamp bond lifetimes; as a3, but the 2C hybridoma cell expresses CD8 with CD8β-Ile2Ala at a level matched to WT CD8.

Take m33-TCR: the peak bond lifetime (at ~9.62 pN), without CD8 in assay [1] stood at 1.82 s. Moreover, in assay [2], the bond lifetime ratio R4-MHC over L4-MHC, high force regime (16–19 pN), without CD8 worked out at 7.55 fold; the bond lifetime ratio R4-MHC over L4-MHC, low force regime (2–5 pN), without CD8 was found to be 1.13 fold; the bond lifetime ratio R4-MHC over L4-MHC, medium force regime (9–12 pN), without CD8 is 1.99 fold; the peak bond lifetime (at ~12.85 pN), without CD8 was found to be 3.43 s. Besides, the 2D effective binding affinity (AcKa) in assay [3] came out at 0.00089 μm^4. The 2D effective binding affinity (AcKa) in [4] stood at 0.0013 μm^4. Also, the koff in assay [5] is 4.22 s⁻¹. Further, in assay [6], the CD8 enhancement power (bond lifetime with CD8 over without CD8), medium force regime is 5.7 fold and the peak bond lifetime, with CD8 came out at 3.99 s. Moreover, in assay [7], the CD8 enhancement power (bond lifetime with CD8 over without CD8), medium force regime worked out at 3.4 fold; the bond lifetime ratio R4-MHC over L4-MHC, medium force regime (9–12 pN), with CD8 is 1.19 fold; the peak bond lifetime, with CD8 worked out at 5.2 s. Besides, the L4 peptide concentration (on RMA-S cells) at which m33 hybridoma T cells release IL-2, with CD8 in assay [8] turned out to be 1 nM. For the same substance, the R4 peptide concentration (on RMA-S cells) at which m33 hybridoma T cells release IL-2, without CD8 in [9] is 100 pM.

Take “mouse CD8αβ with CD8β-Ile2Ala (from UniProt P01731 28-247; P10300 22-213) (receptor)”: the TCR specificity of 2C hybridoma cells (ratio of IL-2 sensitivities for R4 over L4) with CD8β-Ile2Ala in [10] worked out at 7070.

On to m33-TCR, soluble ectodomains, for which the values for the equilibrium dissociation constant (Kd) in assay [11] and in [12] were 0.187 µM and 0.567 µM, respectively.

With 2C-TCR, in [2], the bond lifetime ratio R4-MHC over L4-MHC, high force regime (16–19 pN), without CD8 was 5.1 fold; the bond lifetime ratio R4-MHC over L4-MHC, low force regime (2–5 pN), without CD8 came to 1.3 fold; the bond lifetime ratio R4-MHC over L4-MHC, medium force regime (9–12 pN), without CD8 stood at 3.38 fold; the peak bond lifetime (at ~8.32 pN), without CD8 is 0.3 s. The substance also had a 2D effective binding affinity (AcKa) in assay [3] of 3.7e-05 μm^4. Moreover, in [4], the 2D effective binding affinity (AcKa) stood at 0.0016 μm^4. Moreover, in [5], the dissociation rate constant (koff) worked out at 6.61 s⁻¹. Moreover, in assay [13], the bond lifetime ratio R4-MHC over L4-MHC, medium force regime, with CD8β-Ile2Ala was 4.81; the fold reduction of CD8 enhancement power (CD8β-Ile2Ala against WT CD8) was found to be 2 times; the peak bond lifetime, with CD8β-Ile2Ala was 0.54 s. In assay [7], the CD8 enhancement power (bond lifetime with CD8 over without CD8), medium force regime was 3.04 fold; the bond lifetime ratio R4-MHC over L4-MHC, medium force regime (9–12 pN), with CD8 was 10 fold; the peak bond lifetime, with CD8 came to 0.8 s. This substance returned an IL-2 production of 2C hybridoma T cells stimulated by RMA-S cells pulsed with R4 peptide, with CD8 against without CD8 in assay [9] of more than 100 fold.

For 2C-TCR, soluble ectodomains, the results for the Kd in [11] and in assay [12] were 20.2 µM and 38.2 µM, respectively.

In assay [1], m67-TCR registered a peak bond lifetime, without CD8 of 2.56 s. Besides, in assay [2], the bond lifetime ratio R4-MHC over L4-MHC, high force regime (16–19 pN), without CD8 was 2.63 fold; the bond lifetime ratio R4-MHC over L4-MHC, low force regime (2–5 pN), without CD8 was determined as 0.34 fold; the bond lifetime ratio R4-MHC over L4-MHC, medium force regime (9–12 pN), without CD8 was found to be 3.77 fold; the peak bond lifetime, without CD8 was determined as 5.94 s. The 2D effective binding affinity (AcKa) in [3] is 0.00099 μm^4. In [4], this substance yielded a 2D effective binding affinity (AcKa) of 0.0016 μm^4. In assay [5], this substance showed a koff of 4.92 s⁻¹. In assay [6], the CD8 enhancement power (bond lifetime with CD8 over without CD8), medium force regime was determined as 4.36 fold and the peak bond lifetime, with CD8 is 5.09 s. In assay [7], the bond lifetime ratio R4-MHC over L4-MHC, medium force regime (9–12 pN), with CD8 is 0.96 fold and the peak bond lifetime, with CD8 was 5.95 s. In addition, the L4 peptide concentration (on RMA-S cells) at which m67 hybridoma T cells release IL-2, with CD8 in assay [8] stood at 100 pM. The R4 peptide concentration (on RMA-S cells) at which m67 hybridoma T cells release IL-2, without CD8 in assay [9] was 10 nM.

Turning to m67-TCR, soluble ectodomains, the Kd in assay [11] was 0.0263 µM; in assay [12], 0.0962 µM.

In the case of “mouse CD8αβ, wild type (from UniProt P01731 28-247; P10300 22-213) (receptor)”, the TCR specificity of 2C hybridoma cells (ratio of IL-2 sensitivities for R4 over L4) with WT CD8 in [10] amounted to 65500.

Usually koff stands for the rate constant with which the complex falls apart. Low values mean slow dissociation, high ones fast dissociation. The term Kd denotes the equilibrium constant for the complex coming apart. A high value points to a looser complex.
